Test results: the supplement of paper PMC5998384

Key:
HeLa Kyoto [1] = experiment: melting temperature (median over replicates), in situ; higher = more thermally stable
HeLa Kyoto [2] = experiment: solubility in G1/S (NP-40 vs SDS abundance) (log2 ratio); higher = more soluble; conditions: cell cycle stage: G1/S
HeLa Kyoto [3] = experiment: thermal stability score vs G1/S (z-score of summed log2 fold changes over temperatures); higher = more thermally stable than in G1/S
HeLa Kyoto [4] = experiment: solubility change mitosis vs G1/S (difference of NP-40 vs SDS log2 ratios) (log2 ratio difference); higher = more soluble in mitosis
[5] = cell cycle stage: early G1 (4.5 h after nocodazole release)
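Throughout, for melting temperature (median over replicates), in situ: HeLa Kyoto cells synchronized by double thymidine or nocodazole block, proteins quantified by TMT10plex mass spectrometry, three independent biological replicates.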
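Throughout, for solubility change mitosis vs G1/S (difference of NP-40 vs SDS log2 ratios): synchronized HeLa Kyoto cells (double thymidine block for G1/S, nocodazole release for mitosis), protein amounts in NP-40 versus SDS lysates quantified by mass spectrometry, three biological replicates.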
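Throughout, for solubility in G1/S (NP-40 vs SDS abundance): HeLa Kyoto cells arrested at G1/S by double thymidine block, proteins quantified by TMT10plex mass spectrometry in mild NP-40 versus SDS extracts, three biological replicates.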
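Throughout, for thermal stability score vs G1/S (z-score of summed log2 fold changes over temperatures): synchronized HeLa Kyoto cells, proteins quantified by TMT10plex mass spectrometry, three biological replicates, mitosis taken 0.5 h after nocodazole release, G1/S directly after double thymidine block.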

| Sequence | melting temperature (HeLa Kyoto [1]; cell cycle stage: G1/S) | melting temperature (HeLa Kyoto [1]; cell cycle stage: mitosis) | solubility in G1/S (log2) (HeLa Kyoto [2]) | thermal stability score (HeLa Kyoto [3]; [5]) | thermal stability score (HeLa Kyoto [3]; cell cycle stage: mitosis) | solubility change mitosis (log2) (HeLa Kyoto [4]) |
| --- | --- | --- | --- | --- | --- | --- |
| MDGSGPFSCPICLEPLREPVTLPCGHNFCLACLGALWPHRGASGAGGPGGAARCPLCQEPFPDGLQLRKNHTLSELLQLRQGSGPGSGPGPAPALAPEPSAPSALPSVPEPSAPCAPEPWPAGEEPVRCDACPEGAALPAALSCLSCLASFCPAHLGPHERSPALRGHRLVPPLRRLEESLCPRHLRPLERYCRAERVCLCEACAAQEHRGHELVPLEQERALQEAEQSKVLSAVEDRMDELGAGIAQSRRTVALIKSAAVAERERVSRLFADAAAALQGFQTQVLGFIEEGEAAMLGRSQGDLRRQEEQRSRLSRARQNLSQVPEADSVSFLQELLALRLALEDGCGPGPGPPRELSFTKSSQAVRAVRDMLAVACVNQWEQLRGPGGNEDGPQKLDSEADAEPQDLESTNLLESEAPRDYFLKFAYIVDLDSDTADKFLQLFGTKGVKRVLCPINYPLSPTRFTHCEQVLGEGALDRGTYYWEVEIIEGWVSMGVMAEDFSPQEPYDRGRLGRNAHSCCLQWNGRSFSVWFHGLEAPLPHPFSPTVGVCLEYADRALAFYAVRDGKMSLLRRLKASRPRRGGIPASPIDPFQSRLDSHFAGLFTHRLKPAFFLESVDAHLQIGPLKKSCISVLKRR [TRIM47] | 47.8 °C | 46.7 °C | 0.0943 | 0.521 | 1.84 | -0.052 |
| MDIRKFFGVIPSGKKLVSETVKKNEKTKSDEETLKAKKGIKEIKVNSSRKEDDFKQKQPSKKKRIIYDSDSESEETLQVKNAKKPPEKLPVSSKPGKISRQDPVTYISETDEEDDFMCKKAASKSKENGRSTNSHLGTSNMKKNEENTKTKNKPLSPIKLTPTSVLDYFGTGSVQRSNKKMVASKRKELSQNTDESGLNDEAIAKQLQLDEDAELERQLHEDEEFARTLAMLDEEPKTKKARKDTEAGETFSSVQANLSKAEKHKYPHKVKTAQVSDERKSYSPRKQSKYESSKESQQHSKSSADKIGEVSSPKASSKLAIMKRKEESSYKEIEPVASKRKENAIKLKGETKTPKKTKSSPAKKESVSPEDSEKKRTNYQAYRSYLNREGPKALGSKEIPKGAENCLEGLIFVITGVLESIERDEAKSLIERYGGKVTGNVSKKTNYLVMGRDSGQSKSDKAAALGTKIIDEDGLLNLIRTMPGKKSKYEIAVETEMKKESKLERTPQKNVQGKRKISPSKKESESKKSRPTSKRDSLAKTIKKETDVFWKSLDFKEQVAEETSGDSKARNLADDSSENKVENLLWVDKYKPTSLKTIIGQQGDQSCANKLLRWLRNWQKSSSEDKKHAAKFGKFSGKDDGSSFKAALLSGPPGVGKTTTASLVCQELGYSYVELNASDTRSKSSLKAIVAESLNNTSIKGFYSNGAASSVSTKHALIMDEVDGMAGNEDRGGIQELIGLIKHTKIPIICMCNDRNHPKIRSLVHYCFDLRFQRPRVEQIKGAMMSIAFKEGLKIPPPAMNEIILGANQDIRQVLHNLSMWCARSKALTYDQAKADSHRAKKDIKMGPFDVARKVFAAGEETAHMSLVDKSDLFFHDYSIAPLFVQENYIHVKPVAAGGDMKKHLMLLSRAADSICDGDLVDSQIRSKQNWSLLPAQAIYASVLPGELMRGYMTQFPTFPSWLGKHSSTGKHDRIVQDLALHMSLRTYSSKRTVNMDYLSLLRDALVQPLTSQGVDGVQDVVALMDTYYLMKEDFENIMEISSWGGKPSPFSKLDPKVKAAFTRAYNKEAHLTPYSLQAIKASRHSTSPSLDSEYNEELNEDDSQSDEKDQDAIETDAMIKKKTKSSKPSKPEKDKEPRKGKGKSSKK [RFC1] | 47.2 °C | 49.5 °C | -0.641 | 3.61 | 4.94 | 0.447 |
| MDIRPNHTIYINNMNDKIKKEELKRSLYALFSQFGHVVDIVALKTMKMRGQAFVIFKELGSSTNALRQLQGFPFYGKPMRIQYAKTDSDIISKMRGTFADKEKKKEKKKAKTVEQTATTTNKKPGQGTPNSANTQGNSTPNPQVPDYPPNYILFLNNLPEETNEMMLSMLFNQFPGFKEVRLVPGRHDIAFVEFENDGQAGAARDALQGFKITPSHAMKITYAKK [SNRPB2] | 54.2 °C | 53.2 °C | 0.221 | -2.85 | -4.3 | 0.472 |
| MDIYDTQTLGVVVFGGFMVVSAIGIFLVSTFSMKETSYEEALANQRKEMAKTHHQKVEKKKKEKTVEKKGKTKKKEEKPNGKIPDHDPAPNVTVLLREPVRAPAVAVAPTPVQPPIIVAPVATVPAMPQEKLASSPKDKKKKEKKVAKVEPAVSSVVNSIQVLTSKAAILETAPKEVPMVVVPPVGAKGNTPATGTTQGKKAEGTQNQSKKAEGAPNQGRKAEGTPNQGKKTEGTPNQGKKAEGTPNQGKKAEGTPNQGKKAEGAQNQGKKVDTTPNQGKKVEGAPTQGRKAEGAQNQAKKVEGAQNQGKKAEGAQNQGKKGEGAQNQGKKAEGAQNQGKKAEGAQNQGKKAEGAQNQGKKAEGAQNQGKKAEGAQNQGKKAEGAQNQGKKVEGAQNQGKKAEGAQNQGKKAEGAQNQGKKAEGAQNQGKKAEGAQNQGKKAEGAQNQGKKAEGAQNQGKKAEGAQNQGKKVEGAQNQGKKAEGAQNQGKKAEGAQNQGKKAEGAQNQGQKGEGAQNQGKKTEGAQGKKAERSPNQGKKGEGAPIQGKKADSVANQGTKVEGITNQGKKAEGSPSEGKKAEGSPNQGKKADAAANQGKKTESASVQGRNTDVAQSPEAPKQEAPAKKKSGSKKKGEPGPPDADGPLYLPYKTLVSTVGSMVFNEGEAQRLIEILSEKAGIIQDTWHKATQKGDPVAILKRQLEEKEKLLATEQEDAAVAKSKLRELNKEMAAEKAKAAAGEAKVKKQLVAREQEITAVQARMQASYREHVKEVQQLQGKIRTLQEQLENGPNTQLARLQQENSILRDALNQATSQVESKQNAELAKLRQELSKVSKELVEKSEAVRQDEQQRKALEAKAAAFEKQVLQLQASHRESEEALQKRLDEVSRELCHTQSSHASLRADAEKAQEQQQQMAELHSKLQSSEAEVRSKCEELSGLHGQLQEARAENSQLTERIRSIEALLEAGQARDAQDVQASQAEADQQQTRLKELESQVSGLEKEAIELREAVEQQKVKNNDLREKNWKAMEALATAEQACKEKLLSLTQAKEESEKQLCLIEAQTMEALLALLPELSVLAQQNYTEWLQDLKEKGPTLLKHPPAPAEPSSDLASKLREAEETQSTLQAECDQYRSILAETEGMLRDLQKSVEEEEQVWRAKVGAAEEELQKSRVTVKHLEEIVEKLKGELESSDQVREHTSHLEAELEKHMAAASAECQNYAKEVAGLRQLLLESQSQLDAAKSEAQKQSDELALVRQQLSEMKSHVEDGDIAGAPASSPEAPPAEQDPVQLKTQLEWTEAILEDEQTQRQKLTAEFEEAQTSACRLQEELEKLRTAGPLESSETEEASQLKERLEKEKKLTSDLGRAATRLQELLKTTQEQLAREKDTVKKLQEQLEKAEDGSSSKEGTSV [RRBP1] | 53.2 °C | 53.7 °C | 0.0657 | 2.64 | 7.14 | 0.448 |
| MDLLFGRRKTPEELLRQNQRALNRAMRELDRERQKLETQEKKIIADIKKMAKQGQMDAVRIMAKDLVRTRRYVRKFVLMRANIQAVSLKIQTLKSNNSMAQAMKGVTKAMGTMNRQLKLPQIQKIMMEFERQAEIMDMKEEMMNDAIDDAMGDEEDEEESDAVVSQVLDELGLSLTDELSNLPSTGGSLSVAAGGKKAEAAASALADADADLEERLKNLRRD [CHMP2A] | 53 °C | 54.4 °C | 0.537 | 0.326 | 0.533 | 0.0293 |
| MDLNSASTVVLQVLTQATSQDTAVLKPAEEQLKQWETQPGFYSVLLNIFTNHTLDINVRWLAVLYFKHGIDRYWRRVAPHALSEEEKTTLRAGLITNFNEPINQIATQIAVLIAKVARLDCPRQWPELIPTLIESVKVQDDLRQHRALLTFYHVTKTLASKRLAADRKLFYDLASGIYNFACSLWNHHTDTFLQEVSSGNEAAILSSLERTLLSLKVLRKLTVNGFVEPHKNMEVMGFLHGIFERLKQFLECSRSIGTDNVCRDRLEKTIILFTKVLLDFLDQHPFSFTPLIQRSLEFSVSYVFTEVGEGVTFERFIVQCMNLIKMIVKNYAYKPSKNFEDSSPETLEAHKIKMAFFTYPTLTEICRRLVSHYFLLTEEELTMWEEDPEGFTVEETGGDSWKYSLRPCTEVLFIDIFHEYNQTLTPVLLEMMQTLQGPTNVEDMNALLIKDAVYNAVGLAAYELFDSVDFDQWFKNQLLPELQVIHNRYKPLRRRVIWLIGQWISVKFKSDLRPMLYEAICNLLQDQDLVVRIETATTLKLTVDDFEFRTDQFLPYLETMFTLLFQLLQQVTECDTKMHVLHVLSCVIERVNMQIRPYVGCLVQYLPLLWKQSEEHNMLRCAILTTLIHLVQGLGADSKNLYPFLLPVIQLSTDVSQPPHVYLLEDGLELWLVTLENSPCITPELLRIFQNMSPLLELSSENLRTCFKIINGYIFLSSTEFLQTYAVGLCQSFCELLKEITTEGQVQVLKVVENALKVNPILGPQMFQPILPYVFKGIIEGERYPVVMSTYLGVMGRVLLQNTSFFSSLLNEMAHKFNQEMDQLLGNMIEMWVDRMDNITQPERRKLSALALLSLLPSDNSVIQDKFCGIINISVEGLHDVMTEDPETGTYKDCMLMSHLEEPKVTEDEEPPTEQDKRKKMLALKDPVHTVSLQQFIYEKLKAQQEMLGEQGFQSLMETVDTEIVTQLQEFLQGF [IPO11] | 51.5 °C | 50.8 °C | -0.209 | 1.33 | 0.273 | -0.25 |
| MDLRQFLMCLSLCTAFALSKPTEKKDRVHHEPQLSDKVHNDAQSFDYDHDAFLGAEEAKTFDQLTPEESKERLGKIVSKIDGDKDGFVTVDELKDWIKFAQKRWIYEDVERQWKGHDLNEDGLVSWEEYKNATYGYVLDDPDPDDGFNYKQMMVRDERRFKMADKDGDLIATKEEFTAFLHPEEYDYMKDIVVQETMEDIDKNADGFIDLEEYIGDMYSHDGNTDEPEWVKTEREQFVEFRDKNRDGKMDKEETKDWILPSDYDHAEAEARHLVYESDQNKDGKLTKEEIVDKYDLFVGSQATDFGEALVRHDEF [CALU] | 57.8 °C | 60.3 °C | 0.281 | 1.04 | -0.549 | 0.167 |
| MDLYSTPAAALDRFVARRLQPRKEFVEKARRALGALAAALRERGGRLGAAAPRVLKTVKGGSSGRGTALKGGCDSELVIFLDCFKSYVDQRARRAEILSEMRASLESWWQNPVPGLRLTFPEQSVPGALQFRLTSVDLEDWMDVSLVPAFNVLGQAGSGVKPKPQVYSTLLNSGCQGGEHAACFTELRRNFVNIRPAKLKNLILLVKHWYHQVCLQGLWKETLPPVYALELLTIFAWEQGCKKDAFSLAEGLRTVLGLIQQHQHLCVFWTVNYGFEDPAVGQFLQRQLKRPRPVILDPADPTWDLGNGAAWHWDLLAQEAASCYDHPCFLRGMGDPVQSWKGPGLPRAGCSGLGHPIQLDPNQKTPENSKSLNAVYPRAGSKPPSCPAPGPTGAASIVPSVPGMALDLSQIPTKELDRFIQDHLKPSPQFQEQVKKAIDIILRCLHENCVHKASRVSKGGSFGRGTDLRDGCDVELIIFLNCFTDYKDQGPRRAEILDEMRAQLESWWQDQVPSLSLQFPEQNVPEALQFQLVSTALKSWTDVSLLPAFDAVGQLSSGTKPNPQVYSRLLTSGCQEGEHKACFAELRRNFMNIRPVKLKNLILLVKHWYRQVAAQNKGKGPAPASLPPAYALELLTIFAWEQGCRQDCFNMAQGFRTVLGLVQQHQQLCVYWTVNYSTEDPAMRMHLLGQLRKPRPLVLDPADPTWNVGHGSWELLAQEAAALGMQACFLSRDGTSVQPWDVMPALLYQTPAGDLDKFISEFLQPNRQFLAQVNKAVDTICSFLKENCFRNSPIKVIKVVKGGSSAKGTALRGRSDADLVVFLSCFSQFTEQGNKRAEIISEIRAQLEACQQERQFEVKFEVSKWENPRVLSFSLTSQTMLDQSVDFDVLPAFDALGQLVSGSRPSSQVYVDLIHSYSNAGEYSTCFTELQRDFIISRPTKLKSLIRLVKHWYQQCTKISKGRGSLPPQHGLELLTVYAWEQGGKDSQFNMAEGFRTVLELVTQYRQLCIYWTINYNAKDKTVGDFLKQQLQKPRPIILDPADPTGNLGHNARWDLLAKEAAACTSALCCMGRNGIPIQPWPVKAAV [OAS3] | 50.3 °C | 49.8 °C | -0.177 | 1.51 | 1.6 | -0.109 |
